From the supplement of paper PMC9170038 come the findings set out here.

The test system of the data set is MS2 coat protein. Description: apparent KD of MS2 coat protein; designed switch direction (-1 OFF switch, 1 ON switch): -1; higher = weaker reporter binding. In short, it runs like this:
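Normalised cluster fluorescence was curve-fitted, and each design's median over clusters is its apparent KD. Before this, SNAP-549-labelled MS2 coat protein was titrated from 0.7 or 1.5 nM, doubling to 3 µM, over RNA switches transcribed on Illumina chips by stalled E. coli RNA polymerase. Titrations had no input, 200 uM small-molecule ligand, or an oligonucleotide input, and steps lasted 0.8–1.5 h (lowest) to 10–20 min (highest).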

Where [1] appears, read: Eterna round: R95, input ligand: microRNA oligo, concentration not stated.
Where [2] appears, read: Eterna round: R95, input ligand: FMN 200 uM.
The mark [3] stands for this setting: Eterna round: R95, input ligand: none.
Setting [4] is: input ligand: microRNA oligo, concentration not stated.

“GGUGUGCUAGGAUAUGCUUUGGGCUCGCUUUCCUUCGUUUUACUUGAGGAUCACCCAAGUAGAAGGAGCUUGCC [salish99_ex2_r4_037] (Eterna round: R97, puzzle: Exclusion 2)”: the “apparent KD of MS2 coat protein” value runs as follows: (input ligand: FMN 200 uM) 13.3 nM; (input ligand: none) 11.6 nM.
Turning to “GGUGUGCUAGGAUAUGCUUUGGGCUCGCUUUCCUUCGUUUUACUUGAGGAUCACCCAAGUAGAAGGUGCUUGCC [salish99_ex2_r4_038] (Eterna round: R97, puzzle: Exclusion 2)”, the “apparent KD of MS2 coat protein” value is, setting by setting: (input ligand: FMN 200 uM) 13 nM; (input ligand: none) 13 nM.
Turning to “GGUUAUUGCAAGGAUAUGCUUUUUUUUUAUAUUGCAGAAGGUGCAACAUGAGGAUCACCCAUGUUGGAGGGUUU [JR_E6_Sub022] (puzzle: Exclusion 6)”, under setting [1], the “apparent KD of MS2 coat protein” value came to 26 nM.
“GGUUCGAGAGUAAGGAUAUCGGUCUGCGCGAGUGACGAGAAGGUACAUGAGGAUCACCCAUGUCGAGGGAUCAC [Eternabot (L2) Solution 23] (Eterna round: R97, puzzle: Brourd's mod of Exclusion 4)”: the “apparent KD of MS2 coat protein” value reads like this: (input ligand: FMN 200 uM) 35.8 nM; (input ligand: none) 34.9 nM.
The matching figures for “GGUUCGUGAGGAUAUGUGGCUUCGAUCGUGCGAAGAAGGCUACAGAAGGCACAUGAGGAUCACCCAUGUUCGUC [salish99_ex4_r4_228] (Eterna round: R97, puzzle: Exclusion 4)”: 241 nM and 62.1 nM.
In the case of “GGUUGACAUGAGGAUCACCCAUGUGAGGAUAUGCGAGAGAAAAAAGUGAGGAAGGUUUGCAGAAGGCGCUGUCG [salish99-ex1_r3_008] (puzzle: Exclusion 1)”, the “apparent KD of MS2 coat protein” value was 50.2 nM under setting [2], 115 nM under setting [1] and 81.2 nM under setting [3].
On the same counts, the results for “GGUUGACAUGAGGAUCACCCAUGUGAGGAUAUGCGAGAGAAAAAAGUGAGGAAGUUAAGCAGAAGGCGCUGUCG [salish99-ex1_r3_005] (puzzle: Exclusion 1)” are 89.5 nM, 78 nM and 307 nM.
Regarding “GGUUGGCGAGGAUAUACAUGAGGAUCACCCAUGUGAGAGAAAAAAGUGAGCAAGAAAAGUAGAAGGCGCUGACG [salish99_ex3_r3_030] (Eterna round: R96, puzzle: Exclusion 3)”, the “apparent KD of MS2 coat protein” value (input ligand: FMN 200 uM) came to 209 nM, the “apparent KD of MS2 coat protein” value under setting [4] was found to be 110 nM and the “apparent KD of MS2 coat protein” value (input ligand: none) is 59.9 nM.
As for “GGUUGGCGAGGAUAUACAUGAGGAUCACCCAUGUGAGAGAAAAAAGUGAGCAAGAAAAGUAGAAGGCGCUGACG [salish99_ex3_r3_030] (puzzle: Exclusion 3)”, the “apparent KD of MS2 coat protein” value under setting [2] was determined as 627 nM, the “apparent KD of MS2 coat protein” value under setting [1] was found to be 75.7 nM and the “apparent KD of MS2 coat protein” value under setting [3] was 27.5 nM.
For the sequence “GGUUGGCGAGGAUAUACAUGAGGAUCACCCAUGUGAGAGAAAGAAGUGAGGAAGAAUAGUAGAAGGCGCUGACG [salish99_ex3_r3_056] (puzzle: Exclusion 3)”, the “apparent KD of MS2 coat protein” value by setting is: under setting [2], 746 nM; under setting [1], 56.1 nM; under setting [3], 69.1 nM.
On the same counts, the results for “GGUUGGCGAGGAUAUACAUGAGGAUCACCCAUGUGAGAGAGAAAAGUGAGAACGAAAAGUAGAAGGCGCUGACG [salish99_ex3_r3_061] (puzzle: Exclusion 3)” are 53.5 nM, 65.6 nM and 96.2 nM.
On to “GGUUGGCGAGGAUAUACAUGAGGAUCACCCAUGUGAGAUAAAAAAGUGAGGAAGAAAAGUAGAAGGCGCUGACG [salish99_ex3_r3_010] (puzzle: Exclusion 3)”, for which the “apparent KD of MS2 coat protein” value under setting [2] came to 1140 nM, the “apparent KD of MS2 coat protein” value under setting [1] worked out at 71.5 nM and the “apparent KD of MS2 coat protein” value under setting [3] was found to be 85.1 nM.
With “GGUUGGCGAGGAUAUACAUGAGGAUCACCCAUGUGAGCGAAAAAAGUGAGGAAGAAAAGUAGAAGGCGCUGACG [salish99_ex3_r3_020] (puzzle: Exclusion 3)”, the “apparent KD of MS2 coat protein” value reads like this: under setting [2], 236 nM; under setting [1], 40.1 nM; under setting [3], 63.5 nM.
With “GGUUUACAAGGAUAUACAAAGGUCUUGUGAUCUGUGCGAGGACAUGAGGAUCACCCAUGUAGAAGGUGUCUGCU [Eternabot (L2) Solution 77] (Eterna round: R97, puzzle: Exclusion 2)”, the “apparent KD of MS2 coat protein” value was found to be 193 nM (input ligand: FMN 200 uM) and 114 nM (input ligand: none).
“GGUUUUCUUUUCCUUUCUUACAUGAGGAUCACCCAUGUUUCUUGUCGUGCUCGCGUUGCUCGUCUGUCUGUCUGUUG [salish99_TOv1_r3_076(!)] (puzzle: Sensor v3, turn-off variant 1)”: the “apparent KD of MS2 coat protein” value stood at 45.9 nM under setting [2], 35.7 nM under setting [1] and 56.9 nM under setting [3].
In the case of “GUAAAACAUGUAGGAUAUGCGUGGCGAAGCUAUGCAGAAGGACAUGAGGAUCACCCAUGUUAAAGCGUCUGCGUACAGAUGCAA [Mat - Exclusion NG 1 - Mod of JL - D94] (Eterna round: R96, puzzle: Exclusion NG 1)”, the “apparent KD of MS2 coat protein” value is, setting by setting: (input ligand: FMN 200 uM) 279 nM; under setting [4], 19.8 nM; (input ligand: none) 29.2 nM.
As to “GUAAAGUGAGGAUAUGGUAAUUUAAUUAUUAAUUAAUUAAUCCAGAAGGCACAUGAGGAUCACCCAUGUAAAUG [Mat - Exclusion 4 - D90] (puzzle: Exclusion 4)”, the “apparent KD of MS2 coat protein” value under setting [1] came to 31.6 nM.
As for “GUAACAACUAGAGGAUAUCAGCACGUGUUGUGCUGAGAAGGCUAGAGUUACAUGAGGAUCACCCAUGUCUAGAGAUCAUUAAUU [ENG1/13-A4] (Eterna round: R96, puzzle: Exclusion NG 1)”, the “apparent KD of MS2 coat protein” value runs as follows: (input ligand: FMN 200 uM) 120 nM; under setting [4], 29.5 nM; (input ligand: none) 49.1 nM.
Take “GUAACAACUAGAGGAUAUCAGCACGUUUAGUGCUGAGAAGGCUAGAGUUACAUGAGGAUCACCCAUGUCUAGAGAUCAUUAAUU [ENG1/13-A2] (Eterna round: R96, puzzle: Exclusion NG 1)”: the “apparent KD of MS2 coat protein” value was found to be 177 nM (input ligand: FMN 200 uM), 66.3 nM under setting [4] and 83.8 nM (input ligand: none).
As for “GUAAUGCUGCGAGGAUAUACAUGAGGAUCACCCAUGUGGAUGUCUGAGGCAAAGCCUCAGACGAUGUAGAAGGCGCAGUAAAAU [Mat - Exclusion NG 2 - Mod of JL - D54] (Eterna round: R96, puzzle: Exclusion NG 2)”, the “apparent KD of MS2 coat protein” value came to 85.7 nM (input ligand: FMN 200 uM), 17.6 nM under setting [4] and 44.4 nM (input ligand: none).
Consider “GUACAACAUGAGGAUCACCCAUGUGAGGAUAUGCGAAUUUCAUCAAAAGAUGAAAUUUGCAGAAGGCACUGUAC [Omei Ex1 A10] (Eterna round: R97, puzzle: Exclusion 1)”, for which the “apparent KD of MS2 coat protein” value runs as follows: (input ligand: FMN 200 uM) 19.2 nM; (input ligand: none) 20.8 nM.
For “GUACUAAAGCUUUGCUUUAGUCGUACAUGAGGAUCACCCAUGUAGGAUAUGGUAAGCAUAGCUUACUAGAAGGAUAGAGUGAUC [Mat - Exclusion NG 3 - Mod of JL - D66] (Eterna round: R96, puzzle: Exclusion NG 3)”, the “apparent KD of MS2 coat protein” value turned out to be 285 nM (input ligand: FMN 200 uM), 146 nM under setting [4] and 145 nM (input ligand: none).
The matching figures for “GUACUGAAGCUUUGCUUUAGUCGUACAUGAGGAUCACCCAUGUAGGAUAUGGUAGGCUUUGCUUACCAGAAGGACAGAGUGAUC [JL EXNG3 1.25] (Eterna round: R96, puzzle: Exclusion NG 3)”: 68.6 nM, 83.7 nM and 85.3 nM.
Regarding “GUACUGACAGGAUAUACAUGAGGAUCACCCAUGUGCCUUAGCGCUACAAAAGUAGCGUGUAGAAGGGUCUGUAC [Omei Ex3 Model Bachelor's Dilema v15] (Eterna round: R97, puzzle: Exclusion 3)”, the “apparent KD of MS2 coat protein” value runs as follows: (input ligand: FMN 200 uM) 36.8 nM; (input ligand: none) 15.4 nM.
Turning to “GUAGAGUCAGGAUAUACAAAUAGAUCGAAAGAUCAAUCCAUACAUGAGGAUCACCCAUGUAGAAGGGACUCUAC [Eli x2 4.15] (Eterna round: R97, puzzle: Exclusion 2)”, the “apparent KD of MS2 coat protein” value (input ligand: FMN 200 uM) was found to be 20.5 nM and the “apparent KD of MS2 coat protein” value (input ligand: none) is 16.7 nM.
The matching figures for “GUAGAGUCAGGAUAUACGAGAUCGAAAGAUCUUUGAUCCUAACAUGAGGAUCACCCAUGUAGAAGGGACUCUAC [Omei mod 3 to Eli's favorate candidate (ch.parushev)] (Eterna round: R97, puzzle: Exclusion 2)”: 698 nM and 58 nM.
Consider “GUAGAUCGAGUUAGGAUAUGAUUAAAAUUCGGAUAUCAGAAGGAACUUGAGGAUCACCCAAGUAUAGAUGAUUC [JR_BMEx4_Sub057] (Eterna round: R97, puzzle: Brourd's mod of Exclusion 4)”, for which the “apparent KD of MS2 coat protein” value (input ligand: FMN 200 uM) came to 135 nM and the “apparent KD of MS2 coat protein” value (input ligand: none) came to 29.8 nM.
“GUAGCUCUCGAGGAUAUGGAUAGAAAAGUUAGUCCAGAAGGCGAGACAUGAGGAUCACCCAUGUUGGACUCUGC [Eternabot (L2) Solution 77] (Eterna round: R97, puzzle: Exclusion 6)”: the “apparent KD of MS2 coat protein” value (input ligand: FMN 200 uM) is 118 nM and the “apparent KD of MS2 coat protein” value (input ligand: none) was 60.4 nM.
On the same counts, the results for “GUAUCCGAGAAGGAUAUCAAUGGCCCGGACCACUGAGAAGGUCUCACAUGAGGAUCACCCAUGUCACAGGUGCA [Eternabot (Original) Solution 29] (Eterna round: R97, puzzle: Exclusion 6)” are 74.1 nM and 70.3 nM.
Turning to “GUAUCGUGAGGAUAUCAUGAUUGACUUUUAUUUUGUCAGCGUGAGAAGGCACAUGAGGAUCACCCAUGUGAUUA [Ex4 - 3 - 8] (puzzle: Exclusion 4)”, the “apparent KD of MS2 coat protein” value under setting [1] turned out to be 23.2 nM.
